B1: Twister Ribozyme (parent)
chain: AACACUGCCAAUGCCGGUCCCAAGCCCGGAUAAAAGUGGAGGGGGCGG

Variants of: B1
Test: self-cleavage, relative activity (ratio to wild type); higher = more cleavage; co-transcriptional

| Variant | self-cleavage |
| --- | --- |
| CACACUGCGAAUGCCGGUCCCAAGCCCGGAUAAAAGUGGAGGGGGCGG [A1C C9G] | 0.23 |
| CACACUGCCCAUGCCGGUCCCAAGCCCGGAUAAAAGUGGAGGGGGCGG [A1C A10C] | 0.0756 |
| GACACUGCCAAUGCCGGUCCCAAGCCCGGAUAACAGUGGAGGGGGCGG [A1G A34C] | 0.186 |
| GACGCUGCCAAUGCCGGUCCCAAGCCCGGAUAAAAGUGGAGGGGGCGG [A1G A4G] | 0.237 |
| CACACUGCCAAUGCCGGUCCCAAGCCCGGAUAAAUGUGGAGGGGGCGG [A1C A35U] | 0.129 |
| CACACUGCCAAUGCCGGUCCCAAGCCCGGAUAAACGUGGAGGGGGCGG [A1C A35C] | 0.161 |
| CACACUGCCAAUGCCGGUCCCAAGCCCGGAUAAAGGUGGAGGGGGCGG [A1C A35G] | 0.186 |
| GACACUGCCAAUGCCGGUCCCAAGCGCGGAUAAAAGUGGAGGGGGCGG [A1G C26G] | 0.334 |
| GACACUGCCAAUGCCGGUCCCAAGCACGGAUAAAAGUGGAGGGGGCGG [A1G C26A] | 0.244 |
| GACACUGCCAAUGCCGGUCCCAAGCUCGGAUAAAAGUGGAGGGGGCGG [A1G C26U] | 0.188 |
| CACACUGCCAAUGCCGGUCCCAAGCCCGGGUAAAAGUGGAGGGGGCGG [A1C A30G] | 0.206 |
| CACACUGCCAAUGCCGGUCCCAAGCCCAGAUAAAAGUGGAGGGGGCGG [A1C G28A] | 0.174 |
| CACACUGCCAAUGCCGGUCCCAAGCCCUGAUAAAAGUGGAGGGGGCGG [A1C G28U] | 0.183 |
| CACACUGCCAAUGCCGGUCCCAAGCCCCGAUAAAAGUGGAGGGGGCGG [A1C G28C] | 0.155 |
| GACACUGCCAAUGCCGGUACCAAGCCCGGAUAAAAGUGGAGGGGGCGG [A1G C19A] | 0.247 |
| CACACUGCCAAUGCCAGUCCCAAGCCCGGAUAAAAGUGGAGGGGGCGG [A1C G16A] | 0.209 |
| CACACUGCCAAUGCCGGUCCCAAGCCCGGAUAAAAGUGGAGGGGACGG [A1C G45A] | 0.184 |
| CACACUGCCAAUGCCGGUCCCAAGCCCGGAUAAAAGUGGAGGGGCCGG [A1C G45C] | 0.176 |
| CACACUGCCAAUGCCGGUCCCAAGCCCGGAUAAAAGUGGAGGGGUCGG [A1C G45U] | 0.22 |
| GACACUGCCAAUGCCGGUCCCAAGCCCGGAUACAAGUGGAGGGGGCGG [A1G A33C] | 0.462 |
| CACACUGCCAAUACCGGUCCCAAGCCCGGAUAAAAGUGGAGGGGGCGG [A1C G13A] | 0.12 |
| CACACUGCCAAUGCCGGUCCCAAGCCCGGAUAACAGUGGAGGGGGCGG [A1C A34C] | 0.214 |
| CACACUGCCAAUGCCGGUCCCAAGCCCGGAAAAAAGUGGAGGGGGCGG [A1C U31A] | 0.168 |
| CACACUGCCAAUGCCGGUCCCAAGCCCGGAGAAAAGUGGAGGGGGCGG [A1C U31G] | 0.144 |
| GACACUGCCGAUGCCGGUCCCAAGCCCGGAUAAAAGUGGAGGGGGCGG [A1G A10G] | 0.438 |
| GACACUGCCUAUGCCGGUCCCAAGCCCGGAUAAAAGUGGAGGGGGCGG [A1G A10U] | 0.428 |
| CACACUGCCAAUGCCGGUCCCAACCCCGGAUAAAAGUGGAGGGGGCGG [A1C G24C] | 0.168 |

| Variant | self-cleavage |
| --- | --- |
| GACACUGCAAAUGCCGGUCCCAAGCCCGGAUAAAAGUGGAGGGGGCGG [A1G C9A] | 0.226 |
| CACAGUGCCAAUGCCGGUCCCAAGCCCGGAUAAAAGUGGAGGGGGCGG [A1C C5G] | 0.227 |
| CACAAUGCCAAUGCCGGUCCCAAGCCCGGAUAAAAGUGGAGGGGGCGG [A1C C5A] | 0.198 |
| CACACUGUCAAUGCCGGUCCCAAGCCCGGAUAAAAGUGGAGGGGGCGG [A1C C8U] | 0.193 |
| CACACUGACAAUGCCGGUCCCAAGCCCGGAUAAAAGUGGAGGGGGCGG [A1C C8A] | 0.196 |
| CACACUGCCAAUGCCGGUCCCAAGCCCGGAUAAAAGUGGAGAGGGCGG [A1C G42A] | 0.16 |
| CACACUACCAAUGCCGGUCCCAAGCCCGGAUAAAAGUGGAGGGGGCGG [A1C G7A] | 0.155 |
| CACACUCCCAAUGCCGGUCCCAAGCCCGGAUAAAAGUGGAGGGGGCGG [A1C G7C] | 0.121 |
| CACACUGCCAAUGCCGGUCCCAAGCCCGGAUAAAAGUGGAGGGGGCGC [A1C G48C] | 0.168 |
| CACACUGCCAAUGCCGGUCCCAAGCCCGGAUAAAAGUGGAGGGGGCGA [A1C G48A] | 0.164 |
| CACACUGCCAAUGCCGGUCCCAAGGCCGGAUAAAAGUGGAGGGGGCGG [A1C C25G] | 0.13 |
| CACACUGCCAAUGCCGGUCCCAAGUCCGGAUAAAAGUGGAGGGGGCGG [A1C C25U] | 0.192 |
| GACACUGCCAAUGCCGGUCCCAAGCCCGGAUAAAUGUGGAGGGGGCGG [A1G A35U] | 0.447 |
| GACACUGCCAAUGCCGGUCCCAAGCCCGGAUAAAGGUGGAGGGGGCGG [A1G A35G] | 0.326 |
| GACACUGCCAAUGCCGGUCCCACGCCCGGAUAAAAGUGGAGGGGGCGG [A1G A23C] | 0.202 |
| CACACUGCCAAUGCCGGUGCCAAGCCCGGAUAAAAGUGGAGGGGGCGG [A1C C19G] | 0.187 |
| GACACUGCCAAUGCCGGUCCCAAGCCCGGCUAAAAGUGGAGGGGGCGG [A1G A30C] | 0.198 |
| GACACUGCCAAUGCCGGUCCCAAGCCCGGUUAAAAGUGGAGGGGGCGG [A1G A30U] | 0.436 |
| CACACUGCCACUGCCGGUCCCAAGCCCGGAUAAAAGUGGAGGGGGCGG [A1C A11C] | 0.145 |
| CACACUGCCAGUGCCGGUCCCAAGCCCGGAUAAAAGUGGAGGGGGCGG [A1C A11G] | 0.218 |
| GACACUGCCAAUGCCGGUCCCUAGCCCGGAUAAAAGUGGAGGGGGCGG [A1G A22U] | 0.255 |
| GACACUGCCAAUGCCGGUCCCGAGCCCGGAUAAAAGUGGAGGGGGCGG [A1G A22G] | 0.165 |
| CACCCUGCCAAUGCCGGUCCCAAGCCCGGAUAAAAGUGGAGGGGGCGG [A1C A4C] | 0.171 |
| CACGCUGCCAAUGCCGGUCCCAAGCCCGGAUAAAAGUGGAGGGGGCGG [A1C A4G] | 0.131 |
| CACACUGCCAAUGCUGGUCCCAAGCCCGGAUAAAAGUGGAGGGGGCGG [A1C C15U] | 0.153 |
| CACACUGCCAAUGCAGGUCCCAAGCCCGGAUAAAAGUGGAGGGGGCGG [A1C C15A] | 0.179 |
| CAGACUGCCAAUGCCGGUCCCAAGCCCGGAUAAAAGUGGAGGGGGCGG [A1C C3G] | 0.161 |
